For 3 substances, fold change of Kd against WT PKGIα disulfide dimer, stoichiometry N and log2 fold change in abundance of the PLN pSer16 phosphopeptide (thiophosphorylation in rat heart homogenate), disulfide-activated PKGIα M438G versus basal PKGIα C42S/M438G control (log2 fold change) results are on record in paper PMC5095173, “Disulfide-activated protein kinase G Iα regulates cardiac diastolic relaxation and fine-tunes the Frank–Starling response” (Nature Communications, 2016).

Some results are limits rather than exact numbers.

The target in one assay is C42S PKGIα (human). Description: ITC; PLN (1–23) (700 μM) titrated into the cell containing WT disulfide PKGIα or the C42S mutant (70 μM); 25 °C; 50 mM sodium phosphate buffer pH 7.4, 100 mM NaCl; no cyclic nucleotide. Background: Isothermal titration calorimetry measures the heat released or taken up as one component is titrated into another.
Assay [1] addresses PKGIα (WT mouse heart) (mouse (endogenous in mouse heart)) (UniProt P0C605). In words: cross-linking; intermolecular disulfide dimer of PKGIα in perfused mouse hearts (0 or 5 mm Hg EDP), homogenised with 100 mM maleimide, SDS-PAGE without reducing agent and immunoblot. Background: In western blotting, separated proteins are transferred to a membrane and probed.
Assay [2] deals with Cardiac phospholamban (rat heart homogenate) (rat (endogenous in rat left ventricle)) (UniProt P61016).
For assay [3], the target named is PKGIα M438G (analogue-sensitive mutant), disulfide dimer (human). Description: cross-linking; intermolecular Cys42 disulfide of purified recombinant PKGIα (lipoic acid or air oxidation) seen as dimer by SDS-PAGE.

Sequence of PKGIα (WT mouse heart) (P0C605 2-671): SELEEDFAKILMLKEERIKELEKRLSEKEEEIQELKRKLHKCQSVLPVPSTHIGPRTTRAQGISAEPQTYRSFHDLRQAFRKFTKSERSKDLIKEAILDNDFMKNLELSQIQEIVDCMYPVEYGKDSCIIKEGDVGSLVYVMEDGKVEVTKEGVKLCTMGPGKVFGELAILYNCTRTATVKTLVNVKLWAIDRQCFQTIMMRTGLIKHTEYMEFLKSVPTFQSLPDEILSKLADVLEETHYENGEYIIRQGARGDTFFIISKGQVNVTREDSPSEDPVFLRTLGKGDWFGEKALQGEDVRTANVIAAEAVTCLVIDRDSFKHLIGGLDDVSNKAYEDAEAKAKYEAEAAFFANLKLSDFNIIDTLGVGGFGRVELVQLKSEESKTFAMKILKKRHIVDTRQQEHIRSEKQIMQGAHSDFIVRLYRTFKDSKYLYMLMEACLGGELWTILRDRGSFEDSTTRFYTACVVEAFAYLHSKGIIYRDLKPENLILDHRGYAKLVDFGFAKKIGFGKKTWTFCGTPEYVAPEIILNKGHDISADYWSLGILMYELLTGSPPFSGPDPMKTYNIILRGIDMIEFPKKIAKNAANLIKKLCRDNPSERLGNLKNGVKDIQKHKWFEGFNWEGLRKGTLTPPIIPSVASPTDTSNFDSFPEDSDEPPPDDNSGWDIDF
Sequence of Cardiac phospholamban (rat heart homogenate) (rat (endogenous in rat left ventricle)) (P61016 whole entry): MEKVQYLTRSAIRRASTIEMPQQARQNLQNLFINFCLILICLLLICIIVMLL
Sequence of N-terminally acetylated peptide of the N-terminal cytoplasmic domain of human phospholamban, PLN (amino acid 1-23) (P26678 1-23): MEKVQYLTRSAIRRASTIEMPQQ

Take “N-terminally acetylated peptide of the N-terminal cytoplasmic domain of human phospholamban, PLN (amino acid 1-23) (from UniProt P26678 1-23)”: the fold change of Kd against WT PKGIα disulfide dimer with C42S PKGIα (human) was greater than 5 fold.
In assay [1], “PKGIα (WT mouse heart) (from UniProt P0C605 1-671) (enzyme)” had a stoichiometry N of 2.
Take “PKGIα M438G (analogue-sensitive mutant), disulfide dimer (enzyme)”: the log2 fold change in abundance of the PLN pSer16 phosphopeptide (thiophosphorylation in rat heart homogenate), disulfide-activated PKGIα M438G versus basal PKGIα C42S/M438G control (log2 fold change) in assay [2] came out at 0.41. Further, the stoichiometry N in assay [3] turned out to be 2.

What is called stoichiometry N is a count of units in the complex or per binding partner.
